Results published in US20040121415A1 (published 2004).

Key:
[1] = biological target: Carcinoembryonic antigen (CEA) (UniProt P06731); test: SPR (Biacore 2000), oxidised CEA immobilised on CM5 chip, Fab′ injected
[2] = biological target: Carcinoembryonic antigen (CEA) (UniProt P06731); test: SPR (Biacore 2000), oxidised CEA immobilised; relative to unmodified hA5B7 Fab′
[3] = biological target: T1, human TNF (human, UniProt P01375 77-233); test: BIAcore as in Example 3: sample captured by anti-Fab′ antibody, human TNF passed over
T1 construct: Soluble human TNF, used in the L929 assay and passed over captured antibody in BIAcore; also called human TNFα
T1 sequence (P01375 77-233 limits assumed): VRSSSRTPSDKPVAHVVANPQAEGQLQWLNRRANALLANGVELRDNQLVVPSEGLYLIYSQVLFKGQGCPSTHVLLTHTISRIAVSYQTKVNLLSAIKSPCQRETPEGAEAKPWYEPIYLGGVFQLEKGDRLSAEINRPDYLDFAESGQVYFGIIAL

Sequence of Carcinoembryonic antigen (CEA) (P06731 35-685 limits assumed): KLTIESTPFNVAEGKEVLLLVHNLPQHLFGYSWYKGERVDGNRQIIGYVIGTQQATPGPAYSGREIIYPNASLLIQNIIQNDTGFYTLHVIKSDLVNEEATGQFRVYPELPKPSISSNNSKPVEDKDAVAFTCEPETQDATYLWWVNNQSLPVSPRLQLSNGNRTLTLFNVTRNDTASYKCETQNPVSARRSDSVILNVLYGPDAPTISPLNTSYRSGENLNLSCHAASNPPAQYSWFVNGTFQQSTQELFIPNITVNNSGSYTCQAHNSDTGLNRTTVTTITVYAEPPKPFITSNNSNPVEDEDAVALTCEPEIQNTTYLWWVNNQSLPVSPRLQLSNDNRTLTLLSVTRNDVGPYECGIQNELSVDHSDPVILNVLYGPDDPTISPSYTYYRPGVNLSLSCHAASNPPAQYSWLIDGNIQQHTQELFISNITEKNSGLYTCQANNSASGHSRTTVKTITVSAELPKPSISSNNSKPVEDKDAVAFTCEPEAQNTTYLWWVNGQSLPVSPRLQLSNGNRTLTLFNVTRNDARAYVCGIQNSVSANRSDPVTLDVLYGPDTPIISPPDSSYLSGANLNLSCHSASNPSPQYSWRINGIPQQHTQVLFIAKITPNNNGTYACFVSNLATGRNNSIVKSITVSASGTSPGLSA

Kd [1] [nM] | koff [1] [s⁻¹] | kon [1] [M⁻¹ s⁻¹] | Immunoreactivity [2] [%] | Kd [3] [nM] | Molecule
1.87 | 0.000161 | 86000 | 100 |  | hA5B7 Fab′ (unmodified)
 |  |  |  | 0.156 | hTNF40 IgG (antibody, V domains shown) VH: QIQLVQSGPELKKPGETVKISCKASGYVFTDYGMNWVKQAPGKAFKWMGWINTYIGEPIYVDDFKGRFAFSLETSASTAFLQINNLKNEDTATYFCARGYRSYAMDYWGQGTSVTVSS VL: DIVMTQSQKFMSTSVGDRVSVTCKATQNVGTNVAWYQQKPGQSPKALIYSASFLYSGVPYRFTGSGSGTDFTLTISTVQSEDLAEYFCQQYNIYPLTFGAGTKLELKR
